We go through one molecule from patent US9629804B2, “Lipid formulations for delivery of messenger RNA” (Shire Human Genetic Therapies, Inc., priority 2013, dated 2017).

For this series, the system named is BHK-21 cells. As to the kind of experiment: hSMN-1 western blot of BHK-21 cells transfected with hSMN mRNA. It counts as cell-based. The settings on record: one microgram mRNA, Lipofectamine 2000, 16-18 hours post-transfection. As to the method:
Standard western blot procedures were followed employing various antibodies that recognizes hSMN protein, such as: (A) anti-SMN 4F11 antibody at 1:1,000 dilution; (B) Pierce PA5-27309a-SMN antibody at 1:1,000 dilution; and (C) LSBio C138149a-SMN antibody at 1:1,000 dilution. For each experiment one microgram of hSMN mRNA was transfected into ˜1×10^6 BHK-21 cells using Lipofectamine 2000. Cells were treated with OptiMem and harvested 16-18 hours post-transfection. Cell lysates were harvested, processed and loaded on to an 8-16% Tris Glycine gel. The gel was transferred using a PVDF membrane and treated with the respective primary antibody. Goat anti-mouse HRP antibody was used as the secondary antibody at 1:10,000 dilution for 45 minutes at room temperature followed by washing and development.
On the technique in general: In western blotting, separated proteins are transferred to a membrane and probed.

B1: hSMN mRNA: codon-optimized human Survival of Motor Neuron-1 messenger RNA (SEQ ID NO: 4), in vitro transcribed, Cap 1, poly(A) tail (nucleic acid)
chain: GGACAGAUCGCCUGGAGACGCCAUCCACGCUGUUUUGACCUCCAUAGAAGACACCGGGACCGAUCCAGCCUCCGCGGCCGGGAACGGUGCAUUGGAACGCGGAUUCCCCGUGCCAAGAGUGACUCACCGUCCUUGACACGAUGGCCAUGAGCAGCGGAGGCAGCGGCGGAGGAGUGCCCGAGCAGGAGGACAGCGUGCUGUUCAGGAGAGGCACCGGCCAGAGCGAUGACAGCGAUAUCUGGGACGAUACCGCUCUGAUCAAGGCCUACGACAAGGCCGUGGCCAGCUUCAAGCACGCCCUGAAAAACGGCGACAUCUGCGAGACCAGCGGCAAGCCCAAGACAACCCCCAAGAGAAAGCCCGCCAAGAAGAAUAAGAGCCAGAAAAAGAACACCGCCGCCAGCCUGCAGCAGUGGAAGGUGGGCGACAAGUGCAGCGCCAUCUGGAGCGAGGACGGCUGCAUCUACCCCGCCACCAUCGCCAGCAUCGACUUCAAGAGAGAGACCUGCGUGGUCGUGUACACCGGCUACGGCAACAGAGAGGAGCAGAACCUGAGCGACCUGCUGAGCCCCAUUUGUGAGGUGGCCAAUAACAUCGAACAGAACGCCCAGGAGAACGAGAAUGAAAGCCAGGUGAGCACCGACGAGAGCGAGAACAGCAGAUCUCCUGGCAACAAGAGCGACAACAUCAAGCCUAAGUCUGCCCCUUGGAACAGCUUCCUGCCCCCUCCUCCACCCAUGCCCGGACCCAGACUGGGACCCGGAAAACCUGGCCUGAAGUUCAACGGACCACCUCCCCCUCCACCUCCUCCCCCACCUCAUCUCCUGAGCUGCUGGCUGCCACCCUUCCCCAGCGGACCCCCUAUCAUCCCACCACCCCCUCCCAUCUGCCCCGACAGCCUGGACGACGCCGAUGCCCUGGGCAGCAUGCUGAUCAGCUGGUACAUGAGCGGCUACCACACAGGAUACUACAUGGGCUUCAGACAGAACCAGAAGGAGGGCAGAUGCUCCCACUCCCUGAACUGACGGGUGGCAUCCCUGUGACCCCUCCCCAGUGCCUCUCCUGGCCCUGGAAGUUGCCACUCCAGUGCCCACCAGCCUUGUCCUAAUAAAAUUAAGUUGCAUCAAAGCU
modifications: Cap 1, poly(A) tail
With B1, the “western blot signal for hSMN-1 protein in transfected BHK-21 cells” value is given as “strong signal for hSMN-1”.
